Values of other authors, collected in paper PMC8619967.
Where two headings read alike, the source gives them in different places.

Experiments:
[1] = molecular target: HIV-1 CA-NC nanotubes CA-NC (Human immunodeficiency virus 1) (UniProt O93182)
[2] = molecular target: HIV-1 capsid (Human immunodeficiency virus 1) (UniProt O93182)
[3] = molecular target: HIV-1 capsid (Human immunodeficiency virus 1) (UniProt O93182); remark: listed apart in the source

HIV-1 capsid (Human immunodeficiency virus 1), sequence (O93182 133-363): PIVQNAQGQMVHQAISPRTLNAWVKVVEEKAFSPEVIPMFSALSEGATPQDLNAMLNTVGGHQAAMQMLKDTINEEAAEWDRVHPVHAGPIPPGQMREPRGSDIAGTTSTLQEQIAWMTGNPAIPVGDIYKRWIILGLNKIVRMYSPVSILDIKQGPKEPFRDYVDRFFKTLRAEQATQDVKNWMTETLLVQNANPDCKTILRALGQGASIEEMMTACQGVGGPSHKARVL
NUP358 CycH, sequence (P49792 3067-3223): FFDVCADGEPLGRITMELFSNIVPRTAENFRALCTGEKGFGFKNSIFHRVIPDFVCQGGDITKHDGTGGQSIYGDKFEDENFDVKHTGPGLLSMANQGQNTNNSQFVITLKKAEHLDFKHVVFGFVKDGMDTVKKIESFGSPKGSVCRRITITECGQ
TRN-1, sequence (Q92973 whole entry): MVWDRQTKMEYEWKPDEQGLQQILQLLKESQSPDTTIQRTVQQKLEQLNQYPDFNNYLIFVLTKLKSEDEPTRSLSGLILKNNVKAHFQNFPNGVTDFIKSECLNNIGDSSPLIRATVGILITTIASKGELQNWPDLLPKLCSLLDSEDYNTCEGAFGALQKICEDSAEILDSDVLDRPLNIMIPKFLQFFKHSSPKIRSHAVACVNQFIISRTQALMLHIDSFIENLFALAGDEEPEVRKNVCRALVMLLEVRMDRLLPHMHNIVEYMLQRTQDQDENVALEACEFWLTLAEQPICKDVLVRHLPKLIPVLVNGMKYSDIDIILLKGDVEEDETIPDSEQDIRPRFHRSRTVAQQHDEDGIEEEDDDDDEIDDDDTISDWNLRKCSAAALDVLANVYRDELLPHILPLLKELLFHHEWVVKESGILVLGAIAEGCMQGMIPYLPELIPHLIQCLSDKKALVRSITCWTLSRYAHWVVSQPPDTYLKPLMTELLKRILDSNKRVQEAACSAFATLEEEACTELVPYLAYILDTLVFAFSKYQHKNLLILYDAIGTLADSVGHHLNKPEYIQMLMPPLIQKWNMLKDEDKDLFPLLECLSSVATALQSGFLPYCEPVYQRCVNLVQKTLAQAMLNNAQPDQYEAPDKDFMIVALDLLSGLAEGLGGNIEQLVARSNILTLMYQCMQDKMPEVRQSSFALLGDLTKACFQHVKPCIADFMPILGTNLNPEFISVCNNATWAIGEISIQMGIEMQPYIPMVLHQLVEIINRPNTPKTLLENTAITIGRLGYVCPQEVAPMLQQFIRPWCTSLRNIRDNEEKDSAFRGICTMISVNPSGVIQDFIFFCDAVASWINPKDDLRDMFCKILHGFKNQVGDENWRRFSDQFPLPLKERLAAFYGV
HIV-1 CA-NC nanotubes CA-NC (Human immunodeficiency virus 1), sequence (O93182 133-433): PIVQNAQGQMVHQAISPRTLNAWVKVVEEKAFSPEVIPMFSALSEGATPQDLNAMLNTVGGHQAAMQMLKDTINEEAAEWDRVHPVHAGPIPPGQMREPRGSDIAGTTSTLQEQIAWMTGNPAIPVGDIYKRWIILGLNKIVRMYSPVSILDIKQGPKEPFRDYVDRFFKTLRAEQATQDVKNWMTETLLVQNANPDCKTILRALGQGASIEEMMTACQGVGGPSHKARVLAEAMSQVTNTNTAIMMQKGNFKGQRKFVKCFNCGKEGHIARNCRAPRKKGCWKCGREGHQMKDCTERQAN

TRN-1 (from UniProt Q92973)
Kd [1]: 70 nM

NUP153 FG-motif (from UniProt P49790)
Kd [2]: 50 µM

NUP358 CycH (from UniProt P49792)
Kd [3]: 200 µM
